We go through four substances from publication PMC7803729.

The test deals with CT-P59 monoclonal antibody (fully human IgG) (human). Description: BLI. A general note: Biolayer interferometry detects binding as a change in optical thickness at a sensor tip.
CT-P59 monoclonal antibody (fully human IgG) (human), sequence (heavy, as listed by the source, chain 1 of 2): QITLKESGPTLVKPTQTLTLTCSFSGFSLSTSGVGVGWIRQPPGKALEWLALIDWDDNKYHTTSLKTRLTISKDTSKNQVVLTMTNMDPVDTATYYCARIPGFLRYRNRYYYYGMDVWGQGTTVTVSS
CT-P59 monoclonal antibody (fully human IgG) (human), sequence (light, as listed by the source, chain 2 of 2): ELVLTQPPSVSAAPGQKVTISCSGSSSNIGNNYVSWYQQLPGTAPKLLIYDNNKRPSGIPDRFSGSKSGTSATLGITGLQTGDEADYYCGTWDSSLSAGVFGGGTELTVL

In the case of “SARS-CoV-2 RBD V367F (commercial, Sino Biological) (from UniProt P0DTC2) (domain or fragment)”, the Kd was 0.292 nM, the koff was 0.000265 s⁻¹ and the kon was 907000 M⁻¹ s⁻¹.

As for “SARS-CoV-2 RBD W436R (commercial, Sino Biological) (from UniProt P0DTC2) (domain or fragment)”, the Kd is 0.221 nM, the off-rate constant (koff) is 0.00018 s⁻¹ and the kon worked out at 816000 M⁻¹ s⁻¹.

“SARS-CoV-2 RBD N354D (commercial, Sino Biological) (from UniProt P0DTC2) (domain or fragment)” came in with a dissociation constant (Kd) of 0.294 nM, a koff of 0.000253 s⁻¹ and an association rate constant (kon) of 861000 M⁻¹ s⁻¹.

Turning to “SARS-CoV-2 RBD K458R (commercial, Sino Biological) (from UniProt P0DTC2) (domain or fragment)”, the Kd was 0.236 nM, the koff was determined as 0.000246 s⁻¹ and the kon amounted to 1.04e+06 M⁻¹ s⁻¹.

Broadly, the Kd is the concentration at which binding is half-saturated. Higher therefore signals weaker binding. What is called koff is a measure of how fast the partners let go of each other. A low value points to slow dissociation. A word on the kon: it is the rate constant with which the complex forms. The low end stands for slower complex formation, the high end for faster complex formation.
